# Reference: patent publication US7070788
# Key:
# [1] = biological target: porcine TSH receptor (solubilized porcine thyroid membranes) (porcine) (UniProt Q8SPP9); assay: competitive displacement of 125I-bTSH from solubilized porcine thyroid membranes
# [2] = biological target: human TSH receptor (CHO-JP09 cells) (human) (UniProt P16473); assay: cell-based or functional assay
# [3] = biological target: porcine TSH receptor (solubilized porcine thyroid membranes) (porcine) (UniProt Q8SPP9); assay: competitive binding assay to porcine thyroid membranes
# [4] = biological target: hCG (LH/CG) receptor of MA-10 transformed murine Leydig cells (murine) (UniProt P30730); assay: cell-based or functional assay
# [5] = biological target: rat TSH receptor (FRTL-5 cells) (rat) (UniProt P21463); assay: cell-based or functional assay
# [6] = biological target: hCG (LH/CG) receptor of MA-10 transformed murine Leydig cells (murine) (UniProt P30730); assay: competitive binding with 125I-hCG on MA-10 cells
# Chain of hCG (LH/CG) receptor of MA-10 transformed murine Leydig cells (murine) (P30730 27-700): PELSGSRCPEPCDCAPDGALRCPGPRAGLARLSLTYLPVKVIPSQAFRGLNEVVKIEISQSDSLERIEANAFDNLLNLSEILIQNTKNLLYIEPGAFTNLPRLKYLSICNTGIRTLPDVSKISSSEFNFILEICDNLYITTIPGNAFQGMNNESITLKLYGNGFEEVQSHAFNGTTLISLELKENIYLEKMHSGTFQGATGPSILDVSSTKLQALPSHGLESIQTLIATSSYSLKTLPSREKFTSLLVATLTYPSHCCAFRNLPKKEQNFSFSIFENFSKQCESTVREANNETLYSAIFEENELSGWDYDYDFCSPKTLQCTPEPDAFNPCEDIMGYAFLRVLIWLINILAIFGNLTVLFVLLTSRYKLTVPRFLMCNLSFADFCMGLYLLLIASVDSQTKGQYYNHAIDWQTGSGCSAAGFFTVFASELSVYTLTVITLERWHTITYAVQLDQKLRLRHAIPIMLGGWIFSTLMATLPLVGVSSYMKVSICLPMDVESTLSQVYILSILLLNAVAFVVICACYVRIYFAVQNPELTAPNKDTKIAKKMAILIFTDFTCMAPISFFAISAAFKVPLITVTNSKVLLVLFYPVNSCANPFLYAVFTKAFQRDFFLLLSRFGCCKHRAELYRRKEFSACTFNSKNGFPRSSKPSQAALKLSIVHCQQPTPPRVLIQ
# Chain of rat TSH receptor (FRTL-5 cells) (rat) (P21463 22-764): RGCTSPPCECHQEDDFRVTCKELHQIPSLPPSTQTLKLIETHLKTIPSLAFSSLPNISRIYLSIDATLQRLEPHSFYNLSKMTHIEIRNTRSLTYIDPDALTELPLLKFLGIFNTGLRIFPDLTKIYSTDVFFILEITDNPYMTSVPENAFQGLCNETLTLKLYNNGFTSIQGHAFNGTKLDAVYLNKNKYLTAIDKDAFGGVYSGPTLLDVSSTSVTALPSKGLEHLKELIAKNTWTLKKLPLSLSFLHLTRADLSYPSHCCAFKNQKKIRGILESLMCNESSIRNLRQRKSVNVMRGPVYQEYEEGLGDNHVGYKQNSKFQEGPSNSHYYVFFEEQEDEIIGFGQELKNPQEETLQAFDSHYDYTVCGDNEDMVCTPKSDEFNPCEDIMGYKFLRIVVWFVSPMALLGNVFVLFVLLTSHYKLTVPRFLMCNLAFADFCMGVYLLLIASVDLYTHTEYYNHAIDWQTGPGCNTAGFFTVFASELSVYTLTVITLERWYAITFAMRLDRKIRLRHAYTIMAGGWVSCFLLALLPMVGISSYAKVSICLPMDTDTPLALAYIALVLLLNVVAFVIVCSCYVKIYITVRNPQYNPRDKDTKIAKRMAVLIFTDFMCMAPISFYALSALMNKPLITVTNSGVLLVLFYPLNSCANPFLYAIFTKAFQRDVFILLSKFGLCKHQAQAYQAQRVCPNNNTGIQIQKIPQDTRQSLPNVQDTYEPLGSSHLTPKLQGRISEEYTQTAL
# Chain of porcine TSH receptor (solubilized porcine thyroid membranes) (porcine) (Q8SPP9 22-764): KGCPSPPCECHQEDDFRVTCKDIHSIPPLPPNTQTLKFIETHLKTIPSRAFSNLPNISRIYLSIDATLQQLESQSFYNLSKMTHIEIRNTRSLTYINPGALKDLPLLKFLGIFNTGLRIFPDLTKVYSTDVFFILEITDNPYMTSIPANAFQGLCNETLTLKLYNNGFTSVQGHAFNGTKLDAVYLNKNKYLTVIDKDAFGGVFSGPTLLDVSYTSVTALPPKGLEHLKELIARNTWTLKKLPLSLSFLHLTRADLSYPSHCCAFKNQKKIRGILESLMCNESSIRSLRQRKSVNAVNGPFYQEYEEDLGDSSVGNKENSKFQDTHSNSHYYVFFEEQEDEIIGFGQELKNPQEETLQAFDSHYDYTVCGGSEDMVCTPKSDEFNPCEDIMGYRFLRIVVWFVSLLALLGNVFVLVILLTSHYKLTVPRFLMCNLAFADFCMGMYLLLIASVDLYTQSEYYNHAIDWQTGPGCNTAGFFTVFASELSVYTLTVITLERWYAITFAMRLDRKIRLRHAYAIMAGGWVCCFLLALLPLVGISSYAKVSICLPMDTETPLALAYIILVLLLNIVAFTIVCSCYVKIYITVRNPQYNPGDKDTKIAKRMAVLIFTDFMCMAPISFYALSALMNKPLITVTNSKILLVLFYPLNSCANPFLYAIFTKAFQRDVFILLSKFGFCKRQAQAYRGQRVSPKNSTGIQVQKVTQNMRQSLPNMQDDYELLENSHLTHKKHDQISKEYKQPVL
EC25 of inhibition of 125I-bTSH binding [1],"cAMP stimulation in JP09 cells, EC50 [2]","cAMP stimulation in JP09 cells, Relative potency (WT = 1) (fold (WT = 1)) [2]","Progesterone synthesis in MA10 cells, EC50 [4]","Progesterone synthesis in MA10 cells, Max (%) [4]",Substance,further results
18.3 ng/mL,1.05 ng/mL,6.4,–,–,hTSH α-subunit mutant P16K (from UniProt P01215 25-116; P01222 21-132) (ligand),fold greater affinity than WT-hTSH [3]: 5 fold
–,–,–,3.9 ng/mL,137 % of WT-hCG,hCG α-subunit mutant Q50P (from UniProt P01215 25-116; P0DN86 21-165) (ligand),–
–,–,–,2.98 ng/mL,134 % of WT-hCG,hCG α-subunit mutant Q20K (from UniProt P01215 25-116; P0DN86 21-165) (ligand),–
–,–,–,–,–,hTSH β-subunit mutant I58R (from UniProt P01215 25-116; P01222 21-132) (ligand),potency relative to hTSH [2]: 2 to 4 fold; potency relative to hTSH [5]: 2 to 4 fold
–,3.52 ng/mL,1.9,–,–,hTSH α-subunit mutant P16K + F17T (from UniProt P01215 25-116; P01222 21-132) (ligand),–
–,–,–,–,–,hTSH β-subunit mutant E63R (from UniProt P01215 25-116; P01222 21-132) (ligand),potency relative to hTSH [2]: 2 to 4 fold; potency relative to hTSH [5]: 2 to 4 fold
1.3 ng/mL,0.07 ng/mL,95.7,–,–,hTSH mutant TSHβ-L69R + α Q13K + P16K + Q20K + E14K (from UniProt P01215 25-116; P01222 21-132) (ligand),"efficacy (maximal response) of cAMP stimulation in CHO-JP09 cells, fold over WT-hTSH [2]: 1.5 fold"
2.3 ng/mL,0.28 ng/mL,23.9,–,–,hTSH α-subunit triple mutant Q13K + P16K + Q20K with WT-hTSHβ (from UniProt P01215 25-116; P01222 21-132) (ligand),fold lower concentration than WT-hTSH for half-maximal stimulation of 3H-thymidine incorporation in FRTL-5 cells [5]: 18 fold
–,–,–,2.05 ng/mL,161 % of WT-hCG,hCG α-subunit mutant P16K with WT-hCGβ (from UniProt P01215 25-116; P0DN86 21-165) (ligand),"fold receptor binding activity over WT-hCG [6]: 4 fold; progesterone release assay, fold potency over wild type [4]: 3.4 fold; stimulation of progesterone production in MA-10 cells, fold over WT-hCG [4]: 4 fold"
–,2.75 ng/mL,2.4,–,–,hTSH β-subunit mutant TSHβ-L69R (from UniProt P01215 25-116; P01222 21-132) (ligand),–
–,–,–,2.46 ng/mL,115 % of WT-hCG,hCG α-subunit mutant Q13K (from UniProt P01215 25-116; P0DN86 21-165) (ligand),–
–,–,–,1.7 ng/mL,212 % of WT-hCG,hCG α-subunit double mutant P16K + Q20K (from UniProt P01215 25-116; P0DN86 21-165) (ligand),–
–,–,–,2.79 ng/mL,156 % of WT-hCG,hCG α-subunit mutant T11K (from UniProt P01215 25-116; P0DN86 21-165) (ligand),–
–,–,–,1.65 ng/mL,205 % of WT-hCG,hCG α-subunit quadruple mutant Q13K + P16K + Q20K + E14K (from UniProt P01215 25-116; P0DN86 21-165) (ligand),–
77.5 ng/mL,5.54 ng/mL,1.2,–,–,hTSH α-subunit mutant Q50P (from UniProt P01215 25-116; P01222 21-132) (ligand),–
–,–,–,–,–,hTSH β-subunit mutant I58R+E63R (from UniProt P01215 25-116; P01222 21-132) (ligand),"efficacy relative to wild type hTSH (cAMP stimulation, FIG. 2g) [2]: 1.5 fold; potency relative to wild type hTSH (cAMP stimulation, FIG. 2g) [2]: 15 fold"
1.8 ng/mL,0.19 ng/mL,35.3,–,–,hTSH mutant TSHβ-L69R + α Q13K + P16K + Q20K (from UniProt P01215 25-116; P01222 21-132) (ligand),fold lower concentration than WT-hTSH for half-maximal stimulation of 3H-thymidine incorporation in FRTL-5 cells [5]: 27 fold
–,–,–,–,–,hTSH β-subunit mutant I58R+E63R+L69R (from UniProt P01215 25-116; P01222 21-132) (ligand),"efficacy relative to wild type hTSH (cAMP stimulation, FIG. 2g) [2]: 1.7 fold; potency relative to wild type hTSH (cAMP stimulation, FIG. 2g) [2]: 50 fold"
68.3 ng/mL,4.47 ng/mL,1.5,–,–,hTSH α-subunit mutant T11K (from UniProt P01215 25-116; P01222 21-132) (ligand),–
2.1 ng/mL,0.17 ng/mL,39.4,–,–,hTSH α-subunit quadruple mutant Q13K + P16K + Q20K + E14K (from UniProt P01215 25-116; P01222 21-132) (ligand),"efficacy (maximal response) of cAMP stimulation in CHO-JP09 cells, fold over WT-hTSH [2]: 1.5 fold"
–,–,–,4.6 ng/mL,145 % of WT-hCG,hCG α-subunit mutant R67K (from UniProt P01215 25-116; P0DN86 21-165) (ligand),–
21.3 ng/mL,1.16 ng/mL,5.8,–,–,hTSH α-subunit mutant Q20K (from UniProt P01215 25-116; P01222 21-132) (ligand),–
6.4 ng/mL,0.57 ng/mL,11.8,–,–,hTSH α-subunit double mutant P16K + Q20K (from UniProt P01215 25-116; P01222 21-132) (ligand),–
–,–,–,1.58 ng/mL,216 % of WT-hCG,hCG α-subunit triple mutant Q13K + P16K + Q20K (from UniProt P01215 25-116; P0DN86 21-165) (ligand),–
62.5 ng/mL,7.36 ng/mL,0.9,–,–,hTSH α-subunit mutant R67K (from UniProt P01215 25-116; P01222 21-132) (ligand),–
22.5 ng/mL,1.89 ng/mL,3.5,–,–,hTSH α-subunit mutant Q13K (from UniProt P01215 25-116; P01222 21-132) (ligand),–
